T1: HuCDCP1-C (human, UniProt Q9H5V8 30-667)
T1 construct: range 30-667; expressed in HEK-293T, purified by Fc/his tag; also called human CDCP1-C; full-length extracellular domain of human CDCP1; not shown: Fc or his tag
T1 sequence (looked up): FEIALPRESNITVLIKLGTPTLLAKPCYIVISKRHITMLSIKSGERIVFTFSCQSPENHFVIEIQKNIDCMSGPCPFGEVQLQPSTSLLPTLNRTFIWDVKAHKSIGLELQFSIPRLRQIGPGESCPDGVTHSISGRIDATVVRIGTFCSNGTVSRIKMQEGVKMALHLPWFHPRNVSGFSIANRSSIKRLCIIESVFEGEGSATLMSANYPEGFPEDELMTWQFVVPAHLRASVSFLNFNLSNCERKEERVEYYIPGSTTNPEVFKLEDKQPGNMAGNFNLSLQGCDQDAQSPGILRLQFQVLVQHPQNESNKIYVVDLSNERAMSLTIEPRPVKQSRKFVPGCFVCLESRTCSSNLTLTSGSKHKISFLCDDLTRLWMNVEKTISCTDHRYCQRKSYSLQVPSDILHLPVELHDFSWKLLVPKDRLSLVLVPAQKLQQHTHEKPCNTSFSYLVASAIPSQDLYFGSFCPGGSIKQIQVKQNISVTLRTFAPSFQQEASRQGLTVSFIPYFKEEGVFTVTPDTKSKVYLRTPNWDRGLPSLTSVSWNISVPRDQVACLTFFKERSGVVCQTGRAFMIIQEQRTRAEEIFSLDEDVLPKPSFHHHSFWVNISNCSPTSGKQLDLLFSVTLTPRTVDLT

B1: 1CP-156 (antibody, human IgG1, kappa, V domains shown)
VH: EVQLVESGGGLVQPGRSLRLSCTTSGLTFTHYHMSWVRQAPGKGLEWVAIIRNKAYGYTTDYSASVRGRFTISRDDSKSILYLQMNSLKTEDTAVYYCVREGGYGYDGTFAYWGQGTLVTVSS
VL: DIQMTQSPSSLSASVGDRVTITCRASESVDNYGISFMNWFQQKPGQPPKLLIYAASNQGSGVPSRFSGSGSGTDFTLTISSMQPEDFATYYCQQSKEVPRTFGGGTKVEIKR
notes: humanized 8C9, human IgG1 kappa
B2: 1CP-126 (antibody, human IgG1, kappa, V domains shown)
VH: QVQLVQSGAEVKKPGASVKVSCKASGYNFISYWLHWVRQAPGQGLEWMGGIYPGNTDTTYNQKFKGRVTMTADTSTSTAYMELSSLRSEDTAVYYCIRYDYDRGMDYWGQGTLVTVSS
VL: DIQMTQSPSSLSASVGDRVTITCRASEDIYYRLAWYQQKPGKAPKLLISGATALETGVPSRFSGSGSGKDYTFTISSLQPEDIATYYCQHYWNIPWTFGQGTKVEIKR
notes: humanized 3C11, human IgG1 kappa
B3: 1CP-132 (antibody, human IgG1, kappa, V domains shown)
VH: QVQLVQSGAEVKKPGASVKVSCKASGYNFISYWLHWVRQAPGQGLEWMGGIYPGNTDTTYNQKFKGRVTMTRDTSTSTVYMELSSLRSEDTAVYYCIRYDYDRGMDYWGQGTLVTVSS
VL: DIQMTQSPSSLSASVGDRVTITCRASEDIYYRLAWYQQKPGNAPKLLISGATALETGVPSRFSGSGSGKDYTLTISSLQPEDIATYYCQHYWNIPWTFGQGTKVEIKR
notes: as for B2
B4: 1CP-133 (antibody, human IgG1, kappa, V domains shown)
VH: QVQLVQSGAEVKKPGASVKVSCKASGYNFISYWLHWVRQAPGQGLEWMGGIYPGNTDTTYNQKFKGRVTMTADTSTSTVYMELSSLRSEDTAVYYCIRYDYDRGMDYWGQGTLVTVSS
VL: DIQMTQSPSSLSASVGDRVTITCRASEDIYYRLAWYQQKPGNAPKLLISGATALETGVPSRFSGSGSGKDYTLTISSLQPEDIATYYCQHYWNIPWTFGQGTKVEIKR
notes: as for B2
B5: 1CP-127 (antibody, human IgG1, kappa, V domains shown)
VH: QVQLVQSGAEVKKPGASVKVSCKASGYNFISYWLHWVRQAPGQGLEWMGGIYPGNTDTTYNQKFKGRVTVTAVTSTSTVYMELSSLRSEDTAVYYCIRYDYDRGMDYWGQGTLVTVSS
VL: DIQMTQSPSSLSASVGDRVTITCRASEDIYYRLAWYQQKPGKAPKLLISGATALETGVPSRFSGSGSGKDYTFTISSLQPEDIATYYCQHYWNIPWTFGQGTKVEIKR
notes: as for B2
B6: 1CP-131 (antibody, human IgG1, kappa, V domains shown)
VH: QVQLVQSGAEVKKPGASVKVSCKASGYNFISYWLHWVRQAPGQGLEWMGGIYPGNTDTTYNQKFKGRVTVTAVTSTSTVYMELSSLRSEDTAVYYCIRYDYDRGMDYWGQGTLVTVSS
VL: DIQMTQSPSSLSASVGDRVTITCRASEDIYYRLAWYQQKPGKAPKLLISGATALETGVPSRFSGSGSGKDYTLTISSLQPEDIATYYCQHYWNIPWTFGQGTKVEIKR
notes: as for B2
B7: 1CP-134 (antibody, human IgG1, kappa, V domains shown)
VH: QVQLVQSGAEVKKPGASVKVSCKASGYNFISYWLHWVRQAPGQGLEWMGGIYPGNTDTTYNQKFKGRVTMTADTSTSTAYMELSSLRSEDTAVYYCIRYDYDRGMDYWGQGTLVTVSS
VL: DIQMTQSPSSLSASVGDRVTITCRASEDIYYRLAWYQQKPGNAPKLLISGATALETGVPSRFSGSGSGKDYTLTISSLQPEDIATYYCQHYWNIPWTFGQGTKVEIKR
notes: as for B2
B8: 1CP-135 (antibody, human IgG1, kappa, V domains shown)
VH: QVQLVQSGAEVKKPGASVKVSCKASGYNFISYWLHWVRQAPGQGLEWMGGIYPGNTDTTYNQKFKGRVTVTAVTSTSTVYMELSSLRSEDTAVYYCIRYDYDRGMDYWGQGTLVTVSS
VL: DIQMTQSPSSLSASVGDRVTITCRASEDIYYRLAWYQQKPGNAPKLLISGATALETGVPSRFSGSGSGKDYTLTISSLQPEDIATYYCQHYWNIPWTFGQGTKVEIKR
notes: as for B2
B9: 1CP-112 (antibody, human IgG1, kappa, V domains shown)
VH: QVQLVQSGSELKKPGASVKVSCKASGYTLTDFSMHWVRQAPGQGLEWMGWINTETGAPTYADDFKGRFVFSLDTSVSTAYLQISSLKAEDTAVYYCSRGRDYDPHFDYWGQGTLVTVSS
VL: EIVLTQSPATLSLSPGERATLSCRASQSISDFLHWYQQKPGQAPRLLIKYASQSISGIPARFSGSGPGSDFTLTISSVEPEDFAVYYCQSAHSFPYTFGQGTKLEIKR
notes: humanized 8E5, human IgG1 kappa
B10: 1CP-114 (antibody, human IgG1, kappa, V domains shown)
VH: QVQLVQSGSELKKPGESVKVSCKASGYTLTDFSMHWVRQAPGQGLEWMGWINTETGAPTYADDFKGRFVLSLDTSVSTAYLQISSLKSEDTAVYYCSRGRDYDPHFDYWGQGTLVTVSS
VL: EIVLTQSPATLSLSPGERATLSCRASQSISDFLHWYQQKPGQAPRLLIKYASQSISGIPARFSGSGPGSDFTLTISSVEPEDFAVYYCQSAHSFPYTFGQGTKLEIKR
notes: as for B9
B11: 1CP-113 (antibody, human IgG1, kappa, V domains shown)
VH: QVQLVQSGSELKKPGASVKVSCKASGYTLTDFSMHWVRQAPGQGLEWMGWINTETGAPTYADDFKGRFVLSLDTSVSTAYLQISSLKAEDTAVYYCSRGRDYDPHFDYWGQGTLVTVSS
VL: EIVLTQSPATLSLSPGERATLSCRASQSISDFLHWYQQKPGQAPRLLIKYASQSISGIPARFSGSGPGSDFTLTISSVEPEDFAVYYCQSAHSFPYTFGQGTKLEIKR
notes: as for B9
B12: 1CP-119 (antibody, human IgG1, kappa, V domains shown)
VH: QVQLQQSGSELKKPGESVKLSCKASGYTLTDFSMHWVRQAPGQGLKWMGWINTETGAPTYADDFKGRFVFSLDTSVSMAYLQISSLKSEDTAVYYCSRGRDYDPHFDYWGQGTLVTVSS
VL: EIVLTQSPATLSLSPGERATLSCRASQSISDFLHWYQQKPGQSPRLLIKYASQSISGIPARFSGSGSGSDFTLTISSVEPEDFAVYYCQSAHSFPYTFGQGTKLEIKR
notes: as for B9
B13: 1CP-122 (antibody, human IgG1, kappa, V domains shown)
VH: QVQLVQSGSELKKPGESVKVSCKASGYTLTDFSMHWVRQAPGQGLEWMGWINTETGAPTYADDFKGRFVLSLDTSVSTAYLQISSLKSEDTAVYYCSRGRDYDPHFDYWGQGTLVTVSS
VL: EIVLTQSPATLSLSPGERATLSCRASQSISDFLHWYQQKSGQSPRLLIKYASQSISGIPARFSGSGSGSDFTLTISSVEPEDFAVYYCQSAHSFPYTFGQGTKLEIKR
notes: as for B9
B14: 1CP-123 (antibody, human IgG1, kappa, V domains shown)
VH: QVQLQQSGSELKKPGESVKLSCKASGYTLTDFSMHWVRQAPGQGLKWMGWINTETGAPTYADDFKGRFVFSLDTSVSMAYLQISSLKSEDTAVYYCSRGRDYDPHFDYWGQGTLVTVSS
VL: EIVLTQSPATLSLSPGERATLSCRASQSISDFLHWYQQKSGQSPRLLIKYASQSISGIPARFSGSGSGSDFTLTISSVEPEDFAVYYCQSAHSFPYTFGQGTKLEIKR
notes: as for B9
B15: 1CP-116 (antibody, human IgG1, kappa, V domains shown)
VH: QVQLVQSGSELKKPGASVKVSCKASGYTLTDFSMHWVRQAPGQGLEWMGWINTETGAPTYADDFKGRFVFSLDTSVSTAYLQISSLKAEDTAVYYCSRGRDYDPHFDYWGQGTLVTVSS
VL: EIVLTQSPATLSLSPGERATLSCRASQSISDFLHWYQQKPGQSPRLLIKYASQSISGIPARFSGSGSGSDFTLTISSVEPEDFAVYYCQSAHSFPYTFGQGTKLEIKR
notes: as for B9
B16: 1CP-118 (antibody, human IgG1, kappa, V domains shown)
VH: QVQLVQSGSELKKPGESVKVSCKASGYTLTDFSMHWVRQAPGQGLEWMGWINTETGAPTYADDFKGRFVLSLDTSVSTAYLQISSLKSEDTAVYYCSRGRDYDPHFDYWGQGTLVTVSS
VL: EIVLTQSPATLSLSPGERATLSCRASQSISDFLHWYQQKPGQSPRLLIKYASQSISGIPARFSGSGSGSDFTLTISSVEPEDFAVYYCQSAHSFPYTFGQGTKLEIKR
notes: as for B9
B17: 1CP-120 (antibody, human IgG1, kappa, V domains shown)
VH: QVQLVQSGSELKKPGASVKVSCKASGYTLTDFSMHWVRQAPGQGLEWMGWINTETGAPTYADDFKGRFVFSLDTSVSTAYLQISSLKAEDTAVYYCSRGRDYDPHFDYWGQGTLVTVSS
VL: EIVLTQSPATLSLSPGERATLSCRASQSISDFLHWYQQKSGQSPRLLIKYASQSISGIPARFSGSGSGSDFTLTISSVEPEDFAVYYCQSAHSFPYTFGQGTKLEIKR
notes: as for B9

Molecular target: T1, HuCDCP1-C
Assay: SPR (Caterra), antigen immobilized
Experimental: The humanized anti-CDCP1 antibodies obtained from Example 11 were subjected to gene cloning, constructed into pTT5 expression vector for a small amount of expression in CHO cells (Expi-CHOS: Gibco A29127), and purified with an Fc affinity column (AT Protein A Diamond Plus. No. AA402312). Antibody purity was analyzed by HPLC and determined by Nanodrop. High-throughput affinity assay was carried out for a small amount of antibodies by Caterra.

Binder	Kd [nM]	koff [s⁻¹]	kon [M⁻¹ s⁻¹]
B1	3.6	0.000441	123000
B2	6.78	0.00143	211000
B3	≤ 0.0713	≤ 1e-05	140000
B4	≤ 0.0546	≤ 1e-05	183000
B5	9.66	0.00198	205000
B6	10.5	0.002	191000
B7	10.5	0.00202	193000
B8	4.8	0.0012	249000
B9	0.368	5e-05	136000
B10	15.2	0.00246	161000
B11	0.411	5.9e-05	143000
B12	5.51	0.00124	226000
B13	12.5	0.00209	167000
B14	11.4	0.00227	199000
B15	0.359	4.59e-05	128000
B16	13.4	0.00225	168000
B17	0.122	1.7e-05	139000

Source: patent US20260250410A1 (SICHUAN HUIYU PHARMACEUTICAL, published 2026)
